Reference: PMC7082061 (PLoS Pathogens, 2020)

Columns and labels:
[1] = molecular target: VSV Gth (aa residues 1-422, VSV G fragment that was previously crystallized) (vesicular stomatitis virus); test: negative staining electron microscopy
[2] = molecular target: the molecule itself; test: negative staining electron microscopy

VSV Gth (aa residues 1-422, VSV G fragment that was previously crystallized) (domain or fragment)
stoichiometry N [1]: 3

B1: MOKV G_(1-436)WT (wild type Mokola virus glycoprotein G ectodomain) (domain or fragment)
chain: EFPLYTIPEKIEKWTPIDMIHLSCPNNLLSEEEGCNAESSFTYFELKSGYLAHQKVPGFTCTGVVNEAETYTNFVGYVTTTFKRKHFRPTVAACRDAYNWKVSGDPRYEESLHTPYPDSSWLRTVTTTKESLLIISPSIVEMDIYGRTLHSPMFPSGVCSNVYPSVPSCETNHDYTLWLPEDPSLSLVCDIFTSSNGKKAMNGSRICGFKDERGFYRSLKGACKLTLCGRPGIRLFDGTWVSFTKPDVHVWCTPNQLINIHNDRLDEIEHLIVEDIIKKREECLDTLETILMSQSVSFRRLSHFRKLVPGYGKAYTILNGSLMETNVYYKRVDKWADILPSKGCLKVGQQCMEPVKGVLFNGIIKGPDGQILIPEMQSEQLKQHMDLLKAAVFPLRHPLISREAVFKKDGDADDFVDLHMPDVHKSVSDVDLGLPH
stoichiometry N [2]: 3
